18 molecules from patent US20250019450A1 (DIAGONAL THERAPEUTICS, published 2025) can be followed below.

Substitutions are numbered along the chain they refer to.

The chains are these.
T1: cyno IL-12RB2 with C-terminal HA tag, transiently expressed on HEK-293T cells (cyno, UniProt A0A2K5VNI7 24-860)
T1 construct: whole, on cells; also called cyno IL-12Rβ2
T1 sequence: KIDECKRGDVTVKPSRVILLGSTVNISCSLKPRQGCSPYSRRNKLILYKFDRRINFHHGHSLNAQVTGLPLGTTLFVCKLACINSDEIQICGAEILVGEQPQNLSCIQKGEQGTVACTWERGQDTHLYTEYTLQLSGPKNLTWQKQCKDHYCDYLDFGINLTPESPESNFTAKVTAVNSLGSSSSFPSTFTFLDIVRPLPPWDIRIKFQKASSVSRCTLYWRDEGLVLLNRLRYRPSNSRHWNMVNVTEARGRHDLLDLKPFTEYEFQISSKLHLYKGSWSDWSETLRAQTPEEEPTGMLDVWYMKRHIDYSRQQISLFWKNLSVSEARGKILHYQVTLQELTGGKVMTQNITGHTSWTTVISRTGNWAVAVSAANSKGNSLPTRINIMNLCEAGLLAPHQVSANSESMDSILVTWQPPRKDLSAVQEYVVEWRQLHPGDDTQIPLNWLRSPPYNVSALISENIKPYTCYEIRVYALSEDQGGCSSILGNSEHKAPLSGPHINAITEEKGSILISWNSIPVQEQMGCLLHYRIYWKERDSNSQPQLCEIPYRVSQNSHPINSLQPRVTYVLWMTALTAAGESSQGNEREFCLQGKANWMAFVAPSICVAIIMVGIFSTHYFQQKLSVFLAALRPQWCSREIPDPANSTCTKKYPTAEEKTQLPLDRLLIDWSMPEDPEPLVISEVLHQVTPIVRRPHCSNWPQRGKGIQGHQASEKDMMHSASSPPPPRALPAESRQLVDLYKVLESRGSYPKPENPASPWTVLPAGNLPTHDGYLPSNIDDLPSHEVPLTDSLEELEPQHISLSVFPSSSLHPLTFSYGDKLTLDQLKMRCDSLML

T2: human IL-12RB2 with C-terminal HA tag, transiently expressed on HEK-293T cells (human, UniProt Q99665 24-862)
T2 construct: whole, on cells; also called human IL-12Rβ2
T2 sequence (looked up): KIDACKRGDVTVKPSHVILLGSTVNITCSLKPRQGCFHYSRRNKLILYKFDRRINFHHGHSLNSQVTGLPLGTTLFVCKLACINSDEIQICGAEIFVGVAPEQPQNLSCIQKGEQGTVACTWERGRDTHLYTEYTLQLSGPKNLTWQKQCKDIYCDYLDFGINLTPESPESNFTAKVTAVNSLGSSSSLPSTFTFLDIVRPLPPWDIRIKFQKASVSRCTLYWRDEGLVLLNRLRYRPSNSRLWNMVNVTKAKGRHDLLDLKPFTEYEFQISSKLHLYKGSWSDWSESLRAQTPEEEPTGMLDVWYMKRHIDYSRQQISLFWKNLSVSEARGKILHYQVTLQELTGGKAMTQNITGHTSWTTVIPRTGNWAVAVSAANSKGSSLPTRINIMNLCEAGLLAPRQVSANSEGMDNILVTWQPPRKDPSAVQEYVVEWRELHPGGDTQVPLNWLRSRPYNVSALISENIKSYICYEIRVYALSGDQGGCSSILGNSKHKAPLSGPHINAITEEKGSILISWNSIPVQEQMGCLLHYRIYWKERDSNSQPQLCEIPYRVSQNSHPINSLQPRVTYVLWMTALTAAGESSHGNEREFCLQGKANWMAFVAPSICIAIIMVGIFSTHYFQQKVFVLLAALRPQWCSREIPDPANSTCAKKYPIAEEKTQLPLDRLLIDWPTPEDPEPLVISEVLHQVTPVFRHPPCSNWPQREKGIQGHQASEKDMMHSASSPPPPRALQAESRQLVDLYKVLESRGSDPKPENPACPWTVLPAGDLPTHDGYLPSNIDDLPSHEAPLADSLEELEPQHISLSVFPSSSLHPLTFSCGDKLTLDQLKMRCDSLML

B1: VHH258B1 (VHH)
VHH: QVQLVESGGGLVQAGGSLRLSCAASGRTFSSYVMGWFRQAPGQEREFVAAIMRNGIMTYYADSVKGRFTISRDNAKNTVYLQMNTLKPDDTAVYYCAAASRVGVSISQSSSYTSWGQGTQVTVSS
B2: VHH195B1 (VHH)
VHH: QVQLVESGGGLVQAGGSLRLSCAASGRTFGTYAMGWFRQAPGKERDFVARISNSGAFTHYADSVKGRFTISRDNAKNTVYLHMNSLENGDTAAYYCVATRGTNSAYYTRSTMYEYWGQGTQVTVSS
B3: VHH276B1 (VHH)
VHH: QVQLVESGGGLVQAGASLRLSCAASGRTFSSYAMGWFRQAPGKEREFVAAISGGTPNNIYYTNYKDAVRGRFTISRDNAKNTVYLQMSSLKPEDTAVYYCGATMGRYWNTGGYDYWGQGTQVTVSS
B4: VHH233B1 (VHH)
VHH: QVQLVESGGGLVQAGGSLRLSCAASRSISSFNEMAWYRQAPGEQRELVATIVSTVGFTNYADSVKGRFTISRDNAKNTVYLQMNSLKAEDTAVYYCNARRISTDYWGQGTQVTVSS
B5: VHH245B1 (VHH)
VHH: QVQLQESGGGLVQAGGSLRLSCAASGSIASINAMGWYRQAPGKQRDFVARIQLSGQTSYAHSVRGRFTISRDNAKNTVYLQMNNLKPEDTAVYVCAASNTGSLYGLRNYWGQGTQVTVSS
B6: VHH154B1 (VHH)
VHH: QVQLQESGGGLVQVGDSLRLSCVASGRIFGVNTRAWYRQAPGNQRELVAQISSGGNINYADSVKGRFTISMDKFTDTVYLQMNSLKPEDTAIYRCAAHRQHPYADVWGQGTQVSVSS
B7: VHH187B1 (VHH)
VHH: EVQLVESGGGLVQPGGSLRLSCAASGFTLDYYAIGWFRQAPGKEREGVSCISSSDRSTWYADSVKGRFTISRDNAKNTVYLQMHSLKPEDTAVYYCATPCYSDYDPEGYEYDYWGQGTQVTVSS
B8: VHH321B1 (VHH)
VHH: QVQLVESGGGLVQPGGSLRLSCIASGFTFSDYAMKWVRRPPGKGLEWVSVIDSEGPTIKYSDAVRGRFTISRDNAKNTLYLQMNSLKPEDTAVYYCAKSNGGSAFSSVLYTDRGQGTQVTVSS
B9: VHH263B1 (VHH)
VHH: EVQLVESGGGLVQAGGSLRLSCAASGSKFSFNAMGWYRQTPGKQRELVAIIINGDMINYADSVKGRFTISRDNAKNTMYLQMNSLKPEDTAVYYCKMTRYVYDYWGQGTQVTVSS
B10: VHH41B1 (VHH)
VHH: EVQLVESGGGLVQAGGSLRVACAASGRTFSTYAMAWFRQAPGKEREFVAHILWSGGSTVYPDSVRGRFTISRDNAKNTVYLQMNSLKPEDTAVYYCAQKSGRQVYRIDSWDSFDYWGQGTSVTVSS
B11: VHH174B1 (VHH)
VHH: QVQLVESGGGAVQAGGSLRLSCAASGLTSRHYVMAWFRQAPGIEREFVASIWWGGSTYYADSVKDRFTISRDNAENTVYLQMNSLKPEDTAVYRCAVGTKIGTMGPRYDYWGQGTQVTVSS
B12: VHH137B1 (VHH)
VHH: QVQLVESGGGLVQAGGSLRLSCAASGRTFRTYAMGWFRQAPGKDREVVGIAAWKVASTYYVDYGDSVRGRFTISRDDAKSTVYLQMNNLMPEDTAVYYCAAGAFRTDWRSYAYWGQGTQVTVSS
B13: VHH238B1 (VHH)
VHH: QLQLVESGGGLVQPGGSLRLSCAASGFTFSSYGMSWVRQAPGKGLEWVSYISAGGGTTTYVDFVKGRFTISRDNAKNMLYLQMNSLKPEDTAVYYCVHAADGSRGQGTQVTVSS
B14: VHH229B2 (VHH)
VHH: QVQLVESGGGLVQAGGSLRLSCAASGRTFSSYAMGWFRQAPGKEREFVSAISWNGGSRYYVESVEGRFTISRDNAKNTVYLQMNSLKPEDTAVYYCAASRIYTNYVARSYEYDDWGQGTQVTVSS
B15: VHH216B2 (VHH)
VHH: QVQLVESGGGLVQPGGSLRLSCATSEHTFGTYRMGWFRQAPGKEREFVAGISWTGQTTYYAASVKGRFAISKDNAKNTVYLQMNTLKSDDTAVYYCAVETNNLGRWDRPSEYDYWGQGTQVTVSS
B16: VHH241B2 (VHH)
VHH: QVQLVESGGGLVQLGDSLRLSCAASGRGFSSWTMAWFRQALGKRREFVAAITATGARTCSAESEGRFTISRDNAKNMVFLQMNSLKAEDTAVYYCAATGIASWDPGMADKYTYWGQGTQVTVSS
B17: VHH277B2 (VHH)
VHH: B16 VHH with G99E, S102G, A108G, T112P
B18: VHH211B2 (VHH)
VHH: QVQLVESGGGLVQAGNSLRLSCAASGRTFSSYVVGWFRQAPGKEREFVGRISWSGARTYYADSVKGRFTISRDNAKNTVYLQMNSLKPEDTAVYYCAADLKWEVLLSEHFEYWGQGTQVTVSS

In one assay the target is T3, human IL-12Rβ1-his (Acro Biosystems), biotinylated (human, UniProt P42701 24-545, biotinylated).
T3 construct: bought; captured on Neutravidin in the ELISA; also called Bio-huIL-12Rβ1-His
The experiment in a line: ELISA, periplasmic extract.
For the molecule B1, the OD450 nm stood at 3.3.
With B2, the OD450 nm is 2.93.
The same measure, in the same setting: then B3, with 3.2.
B4: the OD450 nm was 0.349.
For B5, the OD450 nm was 3.12.
For B6, the OD450 nm stood at 2.85.
B7 had an OD450 nm of 0.125.
Same read-out and setting: under B8 stands 1.06; under B9, 0.144; under B10, 0.413.
Regarding B11, the OD450 nm came out at 1.19.
The same measure, in the same setting: then B12, with 3.31; and B13, with 3.33.

A further assay deals with T1, cyno IL-12RB2 with C-terminal HA tag, …. The experiment in a line: FACS, periplasmic extract, HEK-293T. In general terms: A flow cytometer gives signals particle by particle.
On to B14, for which the FOB is 1 fold.
B15 came in with an FOB of 0.98 fold.
In turn, B16 had an FOB of 2.37 fold.
In the case of B17, the FOB worked out at 1.55 fold.
As to B18, the FOB is 0.99 fold.

For another assay, the target named is T2, human IL-12RB2 with C-terminal HA tag, …. Briefly: FACS, periplasmic extract, HEK-293T.
For the molecule B14, the FOB came out at 1.42 fold.
Molecule B17 yielded an FOB of 1.21 fold.
Same read-out and setting: then B18, with 1.64 fold.

The next assay has as its target T4, cyno IL-12RB1 with C-terminal FLAG tag, transiently expressed on HEK-293T cells (cyno, UniProt A0A2K5VWV1 24-662).
T4 construct: whole, on cells
Briefly: FACS, periplasmic extract, HEK-293T.
B1 came in with an FOB of 91 fold.
Still for that read-out and setting: then B2, with 58 fold; and B3, with 24 fold; and B4, with 81 fold.
In turn, B5 returned an FOB of 36 fold.
Same read-out and setting: then B6, with 21 fold; and B7, with 42 fold; and B8, with 93 fold.
Turning to B9, the FOB amounted to 89 fold.
Molecule B10 showed an FOB of 19 fold.
B11: the FOB was determined as 68 fold.
For B12, the FOB amounted to 152 fold.
In turn, B13 yielded an FOB of 44 fold.

For another assay, the target named is T5, human IL-12RB1 with C-terminal FLAG tag, transiently expressed on HEK-293T cells (human, UniProt P42701 24-662).
T5 construct: whole, on cells
Briefly: FACS, periplasmic extract, HEK-293T.
For B1, the FOB is 183 fold.
The molecule B2 registered an FOB of 78 fold.
On the same count and under the same terms, under B3 stands 31 fold; under B4, 146 fold.
Take B5: the FOB was determined as 78 fold.
Molecule B6 gave an FOB of 24 fold.
In turn, B7 displayed an FOB of 86 fold.
B8 had an FOB of 119 fold.
Still for that read-out and setting: then B9, with 105 fold; and B10, with 48 fold.
The molecule B11 displayed an FOB of 80 fold.
Consider B12, for which the FOB was found to be 116 fold.
The molecule B13 came in with an FOB of 50 fold.
